{"source": "paper doi:10.1101/2024.05.09.593331", "test_system": "His6-Ubl1 in complex with N;Nucleocapsid (N) protein (SARS-CoV-2;SARS-CoV-2)", "experiment": "EMSA", "details": "50 mM Tris-HCl pH 8, 150 mM NaCl, 5 mM CaCl2 ([…]"}
{"substance": "5' UTR 1-245 ssRNA", "values": [{"measurement": "Kd", "result": 6.2, "unit": "nM"}]}
